Source: IntAct's records for PubMed 29039417

B1: BBSome complex member BBS4 (Homo sapiens), Q96RK4 (parent)
chain: MAEERVATRTQFPVSTESQKPRQKKAPEFPILEKQNWLIHLHYIRKDYEACKAVIKEQLQETQGLCEYAIYVQALIFRLEGNIQESLELFQTCAVLSPQSADNLKQVARSLFLLGKHKAAIEVYNEAAKLNQKDWEISHNLGVCYIYLKQFNKAQDQLHNALNLNRHDLTYIMLGKIHLLEGDLDKAIEVYKKAVEFSPENTELLTTLGLLYLQLGIYQKAFEHLGNALTYDPTNYKAILAAGSMMQTHGDFDVALTKYRVVACAVPESPPLWNNIGMCFFGKKKYVAAISCLKRANYLAPFDWKILYNLGLVHLTMQQYASAFHFLSAAINFQPKMGELYMLLAVALTNLEDIENAKRAYAEAVHLDKCNPLVNLNYAVLLYNQGEKKNALAQYQEMEKKVSLLKDNSSLEFDSEMVEMAQKLGAALQVGEALVWTKPVKDPKSKHQTTSTSKPASFQQPLGSNQALGQAMSSAAAYRTLPSGAGGTSQFTKPPSLPLEPEPAVESSPTETSEQIREK
partner: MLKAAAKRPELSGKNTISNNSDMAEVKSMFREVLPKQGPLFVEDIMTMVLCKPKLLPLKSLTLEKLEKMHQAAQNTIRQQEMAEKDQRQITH

Variants of: B1
Conditions: with bbip1_human BBIP1, A8MTZ0

effect of a mutation on the interaction | Variant
with no effect | E500A
with no effect | E500K
with no effect | S508A
with no effect | S508E
with no effect | S508K
with no effect | E514A
with no effect | E514K
with no effect | S513K
with no effect | S513A
with no effect | S513E
with no effect | E511K
with no effect | E511A
with no effect | Q515A
with no effect | Q515K
with no effect | Q515E
with no effect | S507E
with no effect | S507A
with no effect | S507K
with no effect | K519E
with no effect | K519A
with no effect | L499K
with no effect | V505E
with no effect | V505K
with no effect | V505A
with no effect | P501E
with no effect | P501K
with no effect | P501A

effect of a mutation on the interaction | Variant
with no effect | T512K
with no effect | T512A
with no effect | T512E
with no effect | R517E
with no effect | R517K
with no effect | R517A
with no effect | E518A
with no effect | E518K
with no effect | P509A
with no effect | P509K
with no effect | P509E
with no effect | A504E
with no effect | A504K
with no effect | I516A
with no effect | I516E
with no effect | I516K
with no effect | P503K
with no effect | P503A
with no effect | P503E
with no effect | E502K
with no effect | E502A
with no effect | T510E
with no effect | T510A
with no effect | T510K
with no effect | E506A
with no effect | E506K
